The values below come from IntAct's records for PubMed 10069336.

One experiment addresses ena_drome ena (UniProt Q8T4F7).
Another experiment concerns the target abl_drome Abl (UniProt P00522).
UniProt P00522, sequence (P00522 whole entry): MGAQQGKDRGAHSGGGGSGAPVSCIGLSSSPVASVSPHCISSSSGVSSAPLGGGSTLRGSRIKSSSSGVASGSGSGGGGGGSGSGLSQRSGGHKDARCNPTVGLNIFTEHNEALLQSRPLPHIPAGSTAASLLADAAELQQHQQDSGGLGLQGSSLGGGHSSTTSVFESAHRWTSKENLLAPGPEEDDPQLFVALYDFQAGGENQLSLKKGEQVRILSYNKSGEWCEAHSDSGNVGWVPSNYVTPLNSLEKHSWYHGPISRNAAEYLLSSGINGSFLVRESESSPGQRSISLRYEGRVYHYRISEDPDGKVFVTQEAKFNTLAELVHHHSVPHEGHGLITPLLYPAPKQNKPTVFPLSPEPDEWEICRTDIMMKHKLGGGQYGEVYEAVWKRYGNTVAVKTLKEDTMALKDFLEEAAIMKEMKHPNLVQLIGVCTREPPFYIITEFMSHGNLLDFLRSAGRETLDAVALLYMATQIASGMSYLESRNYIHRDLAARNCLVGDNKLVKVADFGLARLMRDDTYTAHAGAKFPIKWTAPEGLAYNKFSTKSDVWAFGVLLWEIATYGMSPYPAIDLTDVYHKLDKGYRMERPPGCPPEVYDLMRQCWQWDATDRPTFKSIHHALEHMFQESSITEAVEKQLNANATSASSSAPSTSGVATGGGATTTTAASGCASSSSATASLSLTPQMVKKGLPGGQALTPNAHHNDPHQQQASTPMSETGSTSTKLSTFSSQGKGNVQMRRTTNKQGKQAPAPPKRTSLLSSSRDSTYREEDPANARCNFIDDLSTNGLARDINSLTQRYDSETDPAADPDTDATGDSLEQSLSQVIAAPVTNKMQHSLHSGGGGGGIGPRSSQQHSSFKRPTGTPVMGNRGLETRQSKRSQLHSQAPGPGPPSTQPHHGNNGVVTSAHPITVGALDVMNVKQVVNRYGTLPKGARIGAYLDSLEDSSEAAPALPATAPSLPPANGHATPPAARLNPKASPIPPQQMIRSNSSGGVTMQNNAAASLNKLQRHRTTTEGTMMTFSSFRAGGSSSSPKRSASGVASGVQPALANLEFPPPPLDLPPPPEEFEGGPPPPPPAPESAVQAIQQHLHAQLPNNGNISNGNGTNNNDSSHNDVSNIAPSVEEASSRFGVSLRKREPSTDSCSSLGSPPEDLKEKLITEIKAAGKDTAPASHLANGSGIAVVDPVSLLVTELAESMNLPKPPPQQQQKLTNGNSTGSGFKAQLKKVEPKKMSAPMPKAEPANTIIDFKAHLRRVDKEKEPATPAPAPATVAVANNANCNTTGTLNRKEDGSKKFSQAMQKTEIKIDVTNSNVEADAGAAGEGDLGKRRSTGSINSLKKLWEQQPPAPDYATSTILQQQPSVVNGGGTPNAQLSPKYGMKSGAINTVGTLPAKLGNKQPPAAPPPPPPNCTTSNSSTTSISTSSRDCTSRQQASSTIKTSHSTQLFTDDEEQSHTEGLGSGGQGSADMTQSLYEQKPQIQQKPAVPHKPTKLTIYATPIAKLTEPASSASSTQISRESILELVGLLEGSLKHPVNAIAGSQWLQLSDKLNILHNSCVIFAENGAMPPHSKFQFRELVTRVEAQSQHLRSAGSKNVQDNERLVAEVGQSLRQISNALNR

UniProt Q8T4F7, sequence (Q8T4F7 whole entry): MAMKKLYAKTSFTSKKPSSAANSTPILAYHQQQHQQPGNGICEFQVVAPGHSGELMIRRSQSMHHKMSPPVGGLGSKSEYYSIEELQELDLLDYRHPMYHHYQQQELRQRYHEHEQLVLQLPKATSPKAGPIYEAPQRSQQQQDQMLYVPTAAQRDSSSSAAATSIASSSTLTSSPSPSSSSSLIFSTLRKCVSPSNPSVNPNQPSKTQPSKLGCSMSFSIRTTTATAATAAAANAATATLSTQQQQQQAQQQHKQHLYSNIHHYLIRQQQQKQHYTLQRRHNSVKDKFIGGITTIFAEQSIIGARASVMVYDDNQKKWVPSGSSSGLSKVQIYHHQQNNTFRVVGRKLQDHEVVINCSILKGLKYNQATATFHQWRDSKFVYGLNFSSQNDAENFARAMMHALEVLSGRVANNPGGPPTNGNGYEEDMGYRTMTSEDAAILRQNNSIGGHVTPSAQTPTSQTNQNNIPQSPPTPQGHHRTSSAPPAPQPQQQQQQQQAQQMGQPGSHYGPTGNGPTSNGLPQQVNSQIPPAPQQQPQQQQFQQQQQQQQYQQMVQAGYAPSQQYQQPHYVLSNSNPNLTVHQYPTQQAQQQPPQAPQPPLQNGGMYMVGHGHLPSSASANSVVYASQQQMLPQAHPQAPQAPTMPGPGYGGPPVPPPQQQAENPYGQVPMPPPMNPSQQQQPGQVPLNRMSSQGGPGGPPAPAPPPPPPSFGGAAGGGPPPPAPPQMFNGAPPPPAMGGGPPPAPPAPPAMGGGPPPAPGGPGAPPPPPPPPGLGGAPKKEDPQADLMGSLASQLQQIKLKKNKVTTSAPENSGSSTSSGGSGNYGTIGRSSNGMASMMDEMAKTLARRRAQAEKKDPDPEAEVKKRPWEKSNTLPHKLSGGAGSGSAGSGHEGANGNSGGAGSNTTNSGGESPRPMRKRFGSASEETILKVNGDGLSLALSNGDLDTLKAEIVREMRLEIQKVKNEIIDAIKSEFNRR

Take “Tyrosine-protein phosphatase Lar (Drosophila melanogaster (Fruit fly)), P16621 C1670S”: the “effect of a mutation on the interaction” value in the experiment with ena_drome ena and with abl_drome Abl was “decreasing interaction” each time.
